Experimental data reported in patent US20090258363.
Where two headings read alike, the source gives them in different places.

Assays:
[1] = test system: CCR-5 ZFN (AAACTGCAAAAG) (synthetic); assay: cell_activity; details: K562, with p31
[2] = test system: ZFP-FokI 4-residue ZC linker (synthetic); assay: cleavage_in_vitro
[3] = test system: ZFP-FokI 2-residue ZC linker (synthetic); assay: cleavage_in_vitro
[4] = test system: ZFP-FokI 10-residue ZC linker (synthetic); assay: cleavage_in_vitro
[5] = test system: 296S ZFP-FokI (cells) (synthetic); assay: cell_activity; details: with 287; 0.6 alone, 0.01 donor only
[6] = test system: 296S ZFP-FokI E490K E490K (FokI numbering) (synthetic); assay: cell_activity; details: with 287 Q486E; 0.01 alone
[7] = test system: CCR-5 ZFN (GATGAGGATGAC) (synthetic); assay: cell_activity; details: K562, with p32
[8] = test system: 287A ZFP-FokI Q486E Q486E (FokI numbering) (synthetic); assay: cell_activity; details: with 296 E490K; 0.0 alone
[9] = test system: 287A ZFP-FokI (cells) (synthetic); assay: cell_activity; details: with 296; 0.16 alone, 0.01 donor only

“AAACTGCAAAAG (double strand) [CCR-5 site 2]” showed an activity (% targeted insertion) [1] of 1.
Sequence “CTAGCATTATCCGAGTTACACAACTCGGATAATGCTAG (double strand) [4 bp separation]” has an activity ([2]; Mg, Zn, 37 C) of 74 % cleaved, an activity [3] of 74 % cleaved and an activity [4] of 4 % cleaved.
“CTAGCATTATCCGAGTTCAACCACCAACCACACCAACACAACTCGGATAATGCTAG (double strand) [22 bp separation]” gave an activity [2] of 5 % cleaved.
For “CTAGCATTATCCGAGTTCAACCACCAACCACACCAACACCACCAACTCGGATAATGCTAG (double strand) [26 bp separation]”, the activity [2] was 35 % cleaved.
“CTAGCATTATCCGAGTTCAACCACCAACCACACCAACTCGGATAATGCTAG (double strand) [17 bp separation]” was tested, and the activity [2] was 77 % cleaved.
“CTAGCATTATCCGAGTTCACACAACTCGGATAATGCTAG (double strand) [5 bp separation]” was tested, and the activity [2] was 92 % cleaved.
“CTAGCATTATCCGAGTTCACACACAACTCGGATAATGCTAG (double strand) [7 bp separation]” was tested, and the activity [2] was 80 % cleaved.
Work on “CTAGCATTATCCGAGTTCACACACACAACTCGGATAATGCTAG (double strand) [9 bp separation]” yielded an activity [2] of 23 % cleaved.
In the case of “CTAGCATTATCCGAGTTCACCACACAACTCGGATAATGCTAG (double strand) [8 bp separation]”, the activity [2] is reported as 8 % cleaved and the activity [4] is reported as 63 % cleaved.
Sequence “CTAGCATTATCCGAGTTCACCACCAACACAACTCGGATAATGCTAG (double strand) [12 bp separation]” has an activity [2] of 22 % cleaved.
In the case of “CTAGCATTATCCGAGTTCACCACCAACCACACAACTCGGATAATGCTAG (double strand) [15 bp separation]”, the activity [2] is reported as 97 % cleaved and the activity [4] is reported as 88 % cleaved.
With “CTAGCATTATCCGAGTTCACCACCAACCACACCAACTCGGATAATGCTAG (double strand) [16 bp separation]” the activity [2] was 100 % cleaved and the activity [3] was 59 % cleaved.
For “CTAGGCATTATCCGAGTTCACCACAACTCGGATAATGACTAG (double strand) [6 bp separation]”, the activity [2] was 95 % cleaved, the activity [3] was 78 % cleaved and the activity [4] was 76 % cleaved.
GAAGCAGCA (double strand) [296S site] was tested, and the activity (% corrected cells) [5] was 1.2 and the activity (% corrected cells) [6] was 0.62.
Sequence “GATGAGGATGAC (double strand) [CCR-5 site 1]” has an activity (% targeted insertion) [7] of 1.
GGGGTAGCGG (double strand) [287A site] gave an activity (% corrected cells) [8] of 0.62 and an activity (% corrected cells) [9] of 1.2.
